The target in assay [1] is T1, E-cadherin/Fc chimeric protein (human, UniProt P12830 155-707).
T1 construct: range 155-707; Bought from R&D Systems; also called E-cad/Fc; human E-cadherin/Fc chimeric protein; not shown: Fc region of human IgG1
T1 sequence (looked up): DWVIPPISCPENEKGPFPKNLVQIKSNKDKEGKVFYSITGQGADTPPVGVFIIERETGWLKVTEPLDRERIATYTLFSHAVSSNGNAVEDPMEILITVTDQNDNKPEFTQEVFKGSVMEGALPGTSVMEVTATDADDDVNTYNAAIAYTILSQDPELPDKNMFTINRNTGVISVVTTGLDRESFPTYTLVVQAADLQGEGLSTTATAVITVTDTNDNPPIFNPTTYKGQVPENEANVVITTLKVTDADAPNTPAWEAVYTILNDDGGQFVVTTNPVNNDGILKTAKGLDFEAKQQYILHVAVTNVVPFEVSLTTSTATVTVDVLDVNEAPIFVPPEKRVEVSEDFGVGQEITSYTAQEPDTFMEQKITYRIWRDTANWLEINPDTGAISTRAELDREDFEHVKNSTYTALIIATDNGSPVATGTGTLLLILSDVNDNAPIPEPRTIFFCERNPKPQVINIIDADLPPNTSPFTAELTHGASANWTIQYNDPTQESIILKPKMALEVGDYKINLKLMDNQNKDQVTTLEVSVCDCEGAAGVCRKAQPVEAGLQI
Briefly: summary table, column Peptide Binds to E-cad/Fc; assay not named.

Assay [2] deals with T2, N-cadherin/Fc chimeric protein (human, UniProt P19022 160-724).
T2 construct: range 160-724; Bought from R&D Systems; also called N-cad/Fc; human N-cadherin/Fc chimeric protein; not shown: Fc region of human IgG1
T2 sequence (looked up): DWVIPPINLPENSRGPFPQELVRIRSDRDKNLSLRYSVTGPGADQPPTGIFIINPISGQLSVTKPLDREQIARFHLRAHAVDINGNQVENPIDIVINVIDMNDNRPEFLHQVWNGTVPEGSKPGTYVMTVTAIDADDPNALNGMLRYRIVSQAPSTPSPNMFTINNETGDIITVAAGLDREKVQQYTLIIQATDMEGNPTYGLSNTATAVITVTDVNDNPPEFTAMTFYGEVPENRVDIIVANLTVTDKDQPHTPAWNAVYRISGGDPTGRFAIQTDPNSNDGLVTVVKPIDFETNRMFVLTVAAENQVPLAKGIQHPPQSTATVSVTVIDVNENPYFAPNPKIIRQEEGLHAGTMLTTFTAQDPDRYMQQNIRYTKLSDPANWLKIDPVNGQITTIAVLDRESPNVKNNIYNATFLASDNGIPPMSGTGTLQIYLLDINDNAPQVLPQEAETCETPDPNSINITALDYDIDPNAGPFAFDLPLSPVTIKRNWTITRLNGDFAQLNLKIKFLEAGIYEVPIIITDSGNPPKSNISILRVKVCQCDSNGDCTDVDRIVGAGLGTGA
The assay is described as follows: summary table, column Peptide Binds to N-cad/Fc; assay not named.

In assay [3] the target is T3, VE-cadherin/Fc chimeric protein (UniProt P33151 48-593).
T3 construct: Bought from R&D Systems; also called vascular endothelial (VE)-cadherin/Fc chimeric protein; not shown: Fc part not described
T3 sequence (looked up): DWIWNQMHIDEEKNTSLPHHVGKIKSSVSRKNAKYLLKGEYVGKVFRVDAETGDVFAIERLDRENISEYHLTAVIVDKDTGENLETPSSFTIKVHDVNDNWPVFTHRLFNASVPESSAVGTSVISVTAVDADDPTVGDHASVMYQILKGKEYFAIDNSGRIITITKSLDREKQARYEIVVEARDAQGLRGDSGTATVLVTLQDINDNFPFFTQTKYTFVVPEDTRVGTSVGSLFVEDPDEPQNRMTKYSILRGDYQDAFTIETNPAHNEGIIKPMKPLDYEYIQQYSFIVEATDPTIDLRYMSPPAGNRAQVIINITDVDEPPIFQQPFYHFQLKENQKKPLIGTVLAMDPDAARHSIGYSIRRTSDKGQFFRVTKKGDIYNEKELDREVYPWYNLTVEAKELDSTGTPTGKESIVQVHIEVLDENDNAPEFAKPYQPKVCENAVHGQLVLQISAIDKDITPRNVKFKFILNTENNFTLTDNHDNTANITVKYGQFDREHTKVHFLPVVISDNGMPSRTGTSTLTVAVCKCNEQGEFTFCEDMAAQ
Briefly: phage ELISA. The procedure: (§1) The phage clones shown to bind to the N-cadherin/Fc chimeric protein by ELISA were also evaluated for their ability to bind to E-cadherin/Fc and VE-cadherin/Fc chimeric proteins. The phage clones shown to bind to the E-cadherin/Fc chimeric protein by ELISA were also evaluated for their ability to bind to N-cadherin/Fc and VE-cadherin/Fc chimeric proteins. The same ELISA protocol described in the previous section was used to perform this evaluation with the exception that the wells were coated with either 100 ng N-cadherin/Fc, E-cadherin/Fc or VE-cadherin/Fc chimeric protein (R&D Systems, Minneapolis, Minn.).

For assay [4], the target named is T1, E-cadherin/Fc chimeric protein. Briefly: phage ELISA. The procedure: as §1
Background: ELISA stands for enzyme-linked immunosorbent assay.

For assay [5], the target named is T2, N-cadherin/Fc chimeric protein. The assay is described as follows: phage ELISA, 1.2 mM calcium. The procedure:
The binding of each clone to the cadherin/Fc chimeric proteins was confirmed by ELISA. Wells of ProBind microtiter plates (Falcon) were coated with either N-cadherin/Fc or E-cadherin/Fc chimeric protein (100 ng/well) or human IgG1 (which contains the Fc fragment) (100 ng/well). After blocking the nonspecific sites with TBS containing 3% BSA and 1.2 mM CaCl₂ for 1 h at 37° C., phage clones (10⁹ pfu) diluted in TBST containing 3% BSA and 1.2 mM CaCl₂ (100 μl/well). Non-coated wells were also used to exclude any phage that bound to the plastic surface. After 1 h incubation at room temperature, wells were washed 3 times with TBST containing 3% BSA and 1.2 mM CaCl₂. M13 phage without any insert were used to control the non-specific binding of the phage itself to the target. Monoclonal anti-M13 antibody conjugated to horseradish peroxidase (Amersham Biosciences, Piscataway, N.J.) was diluted in TBST containing 3% BSA and 1.2 mM CaCl₂ (1:2,000) and added to each well (100 μl/well). After 1 h incubation at room temperature, wells were washed three times with TBST containing 3% BSA and 1.2 mM CaCl₂ and once with TBS containing 1.2 mM CaCl₂. Horseradish peroxidase substrate, TMB (Sigma), was added to each well (100 μl/well and after color development the reaction was stopped by addition of 100 μl 0.5 M sulphuric acid to each well. The intensity of the color was measured at 450 nm.
An ELISA was performed in the presence of either 1.2 mM calcium or 2 mM EDTA. […] The signal obtained in the presence of EDTA was lower than in the presence of calcium.

Experimental findings from patent publication US20100240066A1 (MCGILL UNIVERSITY, published 2010) are described below.

Where no end group is shown, it is not given here.

Take H-WYVCVGAH-NH2 (Synthetic linear peptide) [H-WYVCVGAH-NH2]: the binding result in assay [1] was “no binding”; in assay [2] it was “binds”.
As for NWFIDFPVYPPL (whole phage in the assay) [phage clone Nc 12-a1], the binding result is given as “no binding (tested: 10^9 pfu)” in assay [3], “no binding (tested: 10^9 pfu)” in assay [4] and “binds” in assay [5].
Regarding KWELTYFANSFP (whole phage in the assay) [phage clone Nc 12-a3], the binding result in assay [3] is “no binding (tested: 10^9 pfu)”; in assay [4], “no binding (tested: 10^9 pfu)”; in assay [5] it was “binds”.
In the case of SWLAVWPATGAS (whole phage in the assay) [phage clone Nc 12-a10], the figures for the binding result in assay [3], in assay [4] and in assay [5] were “no binding (tested: 10^9 pfu)”, “binds” and “binds”, respectively.
H-HWYITTGPVREK-NH2 (Synthetic linear peptide) [H-HWYITTGPVREK-NH2]: the binding result was “no binding” in assay [1] and “binds” in assay [2].
In the case of EWMIHYDSALTS (not fully specified, whole phage in the assay) [phage clone Nc 12-a6], the binding result is listed as “no binding (tested: 10^9 pfu)” in assay [3], “binds” in assay [4] and “binds” in assay [5].
Consider WLQPYFPSY (whole phage in the assay) [phage clone Nc a5], for which the binding result in assay [3] and in assay [4] was “no binding (tested: 10^9 pfu)” throughout.
For the molecule AWQVHYSYVASS (whole phage in the assay) [phage clone Nc 12-a7], the binding result was “no binding (tested: 10^9 pfu)” in assay [3], “binds” in assay [4] and “binds” in assay [5].
For WLQPYFPSY (whole phage in the assay) [phage clone Nc 1], the binding result in assay [3] and in assay [4] was “no binding (tested: 10^9 pfu)” throughout.
Consider SWTLYTPSGQSK (whole phage in the assay) [phage clone Nc 12-a2], for which the binding result in assay [3] and in assay [4] was “no binding (tested: 10^9 pfu)” in each case.
In the case of H-WELRVSSP-NH2 (Synthetic linear peptide) [H-WELRVSSP-NH2], the figures for the binding result in assay [1] and in assay [2] were “no binding” and “binds”, respectively.
WELRVSSPC (whole phage in the assay) [phage clone Nc a7]: the binding result in assay [3] and in assay [4] was “no binding (tested: 10^9 pfu)” throughout.

B1: phage clone Nc 5 (peptide)
peptide: WEFSICETC
modifications: not fully specified; cysteine pairing not given here; also: displayed on M13 phage pIII
notes: whole phage in the assay
Take B1: the binding result in assay [3] and in assay [4] was “no binding (tested: 10^9 pfu)” each time.
Turning to HWYITTGPVREK (whole phage in the assay) [phage clone Nc 12-01], the binding result in assay [3] is “no binding (tested: 10^9 pfu)”; in assay [4], “no binding (tested: 10^9 pfu)”; in assay [5], “binds”.

B2: phage clone Nc 8 (peptide)
peptide: WTVCPIGNC
modifications: not fully specified; cysteine pairing not given here; also: displayed on M13 phage pIII
notes: whole phage in the assay
Consider B2, for which the binding result in assay [3] and in assay [4] was “no binding (tested: 10^9 pfu)” throughout.
In the case of H-SWELYYPLRANL-NH2 (Synthetic linear peptide) [H-SWELYYPLRANL-NH2], the binding result in assay [1] and in assay [2] was “binds” in each case.
Take H-EWMIHYDSALTS-NH2 (Synthetic linear peptide) [H-EWMIHYDSALTS-NH2]: the binding result in assay [1] and in assay [2] was “binds” throughout.
